The source of these data is patent US20230151111A1 (AKESO BIOPHARMA, published 2023).

Experiment [1] addresses T1, CD73 on cell membrane surface (MDA-MB-231, U87-MG) (human, UniProt P21589 27-549).
T1 construct: whole, on cells; also called NT5E
T1 sequence (looked up): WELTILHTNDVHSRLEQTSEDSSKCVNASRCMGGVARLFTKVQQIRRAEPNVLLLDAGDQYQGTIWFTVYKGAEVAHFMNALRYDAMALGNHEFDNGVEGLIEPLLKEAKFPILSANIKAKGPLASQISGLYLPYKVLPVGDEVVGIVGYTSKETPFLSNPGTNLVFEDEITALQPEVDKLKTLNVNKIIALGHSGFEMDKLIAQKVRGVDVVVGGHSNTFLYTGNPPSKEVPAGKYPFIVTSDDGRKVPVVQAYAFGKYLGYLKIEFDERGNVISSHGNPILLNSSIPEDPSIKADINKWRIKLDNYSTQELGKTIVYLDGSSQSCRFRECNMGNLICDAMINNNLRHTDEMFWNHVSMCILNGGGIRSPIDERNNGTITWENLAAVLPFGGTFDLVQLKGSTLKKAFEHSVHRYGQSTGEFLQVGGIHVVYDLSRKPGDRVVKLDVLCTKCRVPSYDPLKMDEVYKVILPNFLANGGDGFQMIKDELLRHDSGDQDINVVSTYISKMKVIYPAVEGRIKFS
In words: flow cytometry, MDA-MB-231 cells; antibody 3.70 nM. The protocol:
(§1) MDA-MB-231 cells in logarithmic phase were digested with conventional trypsin and transferred to a 1.5 mL centrifuge tube at 3×10⁵ cells/tube. 500 μL of PBSA was added, and the mixture was centrifuged at 5600 rpm for 5 min to remove the supernatant. […] The system was mixed gently and uniformly, and then was incubated on ice for 1 h. Then 500 μL of PBSA was added, and the mixture was centrifuged at 5600 rpm for 5 min to remove the supernatant. […] 500 μL of PBSA was added, and the mixture was centrifuged at 5600 rpm for 5 min to remove the supernatant. At last, 200 μL of PBSA was added to resuspend cell precipitates, and the mixture was transferred to a flow tube for FACSCalibur detection.

Experiment [2] has as its target T1, CD73 on cell membrane surface …. In words: flow cytometry, MDA-MB-231 cells. The protocol: as §1
Background: A flow cytometer gives signals particle by particle.

The target is the same in experiment [3]. In words: flow cytometry, MDA-MB-231 cells; antibody 100.00 nM. The protocol:
as §1

For experiment [4] the target is unchanged. Nature of the experiment: flow cytometry, MDA-MB-231 cells; antibody 1.23 nM. Here is the method:
as §1

Experiment [5] shares this target. In words: cell-based or functional assay.
For experiment [6] the target is unchanged. In words: flow cytometry, MDA-MB-231 cells; antibody 0.05 nM. Here is the method: as §1
The target is the same in experiment [7]. In words: flow cytometry, MDA-MB-231 cells; antibody 33.33 nM. The protocol: as §1
Experiment [8] shares this target. Nature of the experiment: flow cytometry, MDA-MB-231 cells; antibody 0.14 nM. Here is the method:
as §1

The target is the same in experiment [9]. Nature of the experiment: flow cytometry, MDA-MB-231 cells; antibody 11.11 nM. Here is the method:
as §1

The target is the same in experiment [10]. In words: flow cytometry, MDA-MB-231 cells; antibody 0.41 nM. Here is the method:
as §1

Experiment [11] has as its target T2, PD-1 on 293T-PD1 cell surface (human, UniProt Q15116 25-288).
T2 construct: whole, on cells
In words: flow cytometry, 293T-PD1 cells; antibody 11.11 nM. The protocol: (§2) 500 μL of PBSA was added, and the mixture was centrifuged at 5600 rpm for 5 min to remove the supernatant. […] The system was mixed gently and uniformly, and then was incubated on ice for 1 h. Then 500 μL of PBSA was added, and the mixture was centrifuged at 5600 rpm for 5 min to remove the supernatant. […] 500 μL of PBSA was added, and the mixture was centrifuged at 5600 rpm for 5 min to remove the supernatant. At last, 200 μL of PBSA was added to resuspend cell precipitates, and the mixture was transferred to a flow tube for FACSCalibur detection.

For experiment [12], the target named is T2, PD-1 on 293T-PD1 cell surface. In words: flow cytometry, 293T-PD1 cells. Here is the method:
as §2

Experiment [13] shares this target. In words: flow cytometry, 293T-PD1 cells; antibody 0.41 nM. Here is the method:
as §2

The target in another experiment is T3, human NT5E-Biotin (human, UniProt P21589 27-552, limits assumed, biotin label, site not stated).
T3 construct: Captured on streptavidin-coated plates; also called human NTSE-Biotin
T3 sequence (looked up): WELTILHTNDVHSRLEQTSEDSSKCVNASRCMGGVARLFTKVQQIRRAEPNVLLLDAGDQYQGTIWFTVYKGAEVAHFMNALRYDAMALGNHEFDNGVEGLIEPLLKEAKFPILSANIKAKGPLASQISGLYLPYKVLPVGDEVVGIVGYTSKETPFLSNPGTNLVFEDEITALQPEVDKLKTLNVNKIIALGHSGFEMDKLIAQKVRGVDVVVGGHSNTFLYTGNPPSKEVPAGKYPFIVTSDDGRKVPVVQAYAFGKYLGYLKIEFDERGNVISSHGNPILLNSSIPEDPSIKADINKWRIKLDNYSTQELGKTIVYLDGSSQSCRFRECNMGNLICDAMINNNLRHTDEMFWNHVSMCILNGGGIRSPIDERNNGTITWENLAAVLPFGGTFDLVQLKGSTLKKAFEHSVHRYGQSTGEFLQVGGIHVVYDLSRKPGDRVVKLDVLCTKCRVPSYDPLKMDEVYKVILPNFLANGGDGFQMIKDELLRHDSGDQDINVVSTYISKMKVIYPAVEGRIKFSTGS
In words: ELISA, NT5E-biotin on streptavidin. Here is the method:
A microplate was coated with streptavidin at 2 μg/mL and then incubated at 4° C. overnight. After incubation, the microplate coated with streptavidin was washed once with PBST, and blocked with a PBS solution containing 1% BSA as a microplate blocking solution at 37° C. for 2 h. After blocking, the microplate was washed 3 times with PBST. Then, 0.5 μg/mL antigen human NTSE-Biotin was added and incubated at 37° C. for 30 min. Then, the plate was washed 3 times with PBST. The antibodies serially diluted with PBST solution (the dilution gradients for the antibody are shown in Table 3) were added to wells of the microplate. The microplate containing the test antibodies was incubated at 37° C. for 30 min, and then washed 3 times with PBST. […] After incubation, the plate was washed 4 times with PBST, TMB (Neogen, 308177) was added in the dark for chromogenesis for 5 min, and then a stop solution was added to terminate chromogenic reaction. The microplate was put into a microplate reader immediately, and the OD value of each well in the microplate was read at 450 nm. The data were analyzed and processed by SoftMax Pro 6.2.1.
(In general: An ELISA detects its analyte on a solid surface through an enzyme-linked reagent.)

Experiment [14] concerns the target T2, PD-1 on 293T-PD1 cell surface. Nature of the experiment: flow cytometry, 293T-PD1 cells; antibody 0.05 nM. Here is the method: as §2
Experiment [15] has the same target. In words: flow cytometry, 293T-PD1 cells; antibody 1.23 nM. The protocol: as §2
Experiment [16] shares this target. In words: flow cytometry, 293T-PD1 cells; antibody 0.14 nM. The protocol:
as §2

In experiment [17] the target is T4, PD-1-mFc (human, UniProt Q15116 25-170, limits assumed).
T4 construct: also called human PD-1-mFc
Nature of the experiment: ELISA, PD-1-mFc coated; antibody 1 ug/mL diluted 1:27. The protocol: (§3) A microplate was coated with PD-1-mFc at 0.5 μg/mL and incubated at 4° C. overnight. Then the microplate coated with antigens was washed once with PBST, and then blocked with a PBS solution containing 1% BSA as blocking solution at 37° C. for 2 h. After blocking, the microplate was washed 3 times with PBST. The microplate containing the test antibodies was incubated at 37° C. for 30 min, and then washed 3 times with PBST. […] After incubation, the plate was washed 4 times with PBST, TMB (Neogen, 308177) was added in the dark for chromogenesis for 5 min, and then a stop solution was added to terminate chromogenic reaction. The microplate was put into a microplate reader immediately, and the OD value of each well in the microplate was read at 450 nm. The data were analyzed and processed by SoftMax Pro 6.2.1,

Experiment [18] has as its target T4, PD-1-mFc. In words: ELISA, PD-1-mFc coated. Here is the method: as §3
Experiment [19] concerns the target T2, PD-1 on 293T-PD1 cell surface. In words: flow cytometry, 293T-PD1 cells; antibody 100.00 nM. The protocol: as §2
Experiment [20] shares this target. In words: flow cytometry, 293T-PD1 cells; antibody 3.70 nM. The protocol: as §2
Experiment [21] has the same target. In words: flow cytometry, 293T-PD1 cells; antibody 33.33 nM. Here is the method:
as §2

Another experiment concerns the target human PD-1-mFc-biotin (human, UniProt Q15116 25-170, limits assumed, biotin label, site not stated). In words: competitive ELISA, blocking of PD-1-mFc-biotin binding to coated PD-L1-mFc. The protocol: After incubation, the microplate was blocked with a PBS solution containing 1% BSA at 37° C. for 2 h. After blocking, the plate was washed three times and dried. The antibody was serially diluted to 7 concentrations in a gradient ratio of 1:3 on a dilution plate with 10 μg/mL as the starting concentration, and a blank control was set. […] Then the mixture after reaction was added to the coated microplate, and the microplate was incubated for at 37° C. for 30 min. After incubation, the plate was washed three times with PBST and dried. SA-HRP (KPL, 14-30-00) working solution was added, and the plate was incubated at 37° C. for 30 min. After incubation, the plate was washed four times and patted dry. Then TMB (Neogen, 308177) was added in the dark for chromogenesis for 5 min, and a stop solution was added to terminate chromogenic reaction. Then the microplate was put into a microplate reader immediately, and the OD value of each well in the microplate was read at 450 nm. The data were analyzed and processed by SoftMax Pro 6.2.1.

T2 sequence (Q15116 25-288): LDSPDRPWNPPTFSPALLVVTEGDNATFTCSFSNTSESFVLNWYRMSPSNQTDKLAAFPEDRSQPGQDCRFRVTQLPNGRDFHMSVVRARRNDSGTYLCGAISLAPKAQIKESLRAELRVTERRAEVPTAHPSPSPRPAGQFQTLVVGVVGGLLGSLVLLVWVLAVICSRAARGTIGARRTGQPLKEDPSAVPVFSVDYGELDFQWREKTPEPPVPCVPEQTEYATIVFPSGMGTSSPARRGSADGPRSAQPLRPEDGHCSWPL
T4 sequence (Q15116 other isoform, or with tags, fused parts or gaps limits assumed): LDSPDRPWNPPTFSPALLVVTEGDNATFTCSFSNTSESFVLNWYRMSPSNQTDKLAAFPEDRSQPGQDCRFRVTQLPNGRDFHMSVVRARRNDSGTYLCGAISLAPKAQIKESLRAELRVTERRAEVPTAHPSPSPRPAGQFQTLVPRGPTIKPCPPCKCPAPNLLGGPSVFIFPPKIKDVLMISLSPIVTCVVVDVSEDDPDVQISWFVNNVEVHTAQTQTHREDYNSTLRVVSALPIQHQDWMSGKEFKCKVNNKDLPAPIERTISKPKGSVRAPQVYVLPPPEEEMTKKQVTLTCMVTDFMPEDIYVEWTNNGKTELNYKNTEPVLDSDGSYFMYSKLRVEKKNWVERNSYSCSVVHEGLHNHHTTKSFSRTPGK
human PD-1-mFc-biotin, sequence (Q15116 other isoform, or with tags, fused parts or gaps limits assumed): as above

B1: MEDI9447 (antibody, V domains shown)
VH: EVQLLESGGGLVQPGGSLRLSCAASGFTFSSYAYSWVRQAPGKGLEWVSAISGSGGRTYYADSVKGRFTISRDNSKNTLYLQMNSLRAEDTAVYYCARLGYGRVDEWGRGTLVTVSS
VL: QSVLTQPPSASGTPGQRVTISCSGSLSNIGRNPVNWYQQLPGTAPKLLIYLDNLRLSGVPDRFSGSKSGTSASLAISGLQSEDEADYYCATWDDSHPGWTFGGGTKLTVLG
What is called EC50 is the concentration that produces a half-maximal response. A low value points to higher potency in that assay. Regarding B1, the FACS signal in experiment [1] was found to be 698; in experiment [3], 878; in [4] it was 389; in [6] it was 32.6; in experiment [7], 930; in experiment [8] it was 64.4. Further, the FACS signal in [9] was 829; in experiment [10], 158. This molecule returned a 50% effective concentration (EC50) in experiment [2] of 1.59 nM. Besides, in experiment [5], the “IC50 (nM), inhibition of enzyme activity of CD73 on U87-MG cell membrane surface” value is 0.119 nM.

B2: P1D7V04R (bispecific antibody, human IgG1, kappa)
heavy: not shown
light: DIQMTQSPSSMSASVGDRVTFTCRASQDINTYLSWFQQKPGKSPKTLIYRANRLVSGVPSRFSGSGSGQDYTLTISSLQPEDMATYYCLQYDEFPLTFGAGTKLELKRTVAAPSVFIFPPSDEQLKSGTASVVCLLNNFYPREAKVQWKVDNALQSGNSQESVTEQDSKDSTYSLSSTLTLSKADYEKHKVYACEVTHQGLSSPVTKSFNRGEC
notes: Morrison form IgG-scFv
For the molecule B2, the FACS signal came to 1280 in experiment [11]; 113 in [13]; 24.8 in experiment [14]; 289 in [15]; 52.4 in [16]; 361 in experiment [19]. The FACS signal in experiment [20] came to 467; in experiment [21], 400. Besides, the EC50 came out at 1.57 nM in [12], 0.439 nM with human NT5E-Biotin, 0.089 nM with PD-1-mFc [18] and 1.34 nM in the experiment with human PD-1-mFc-biotin. For the same molecule, the OD450 in the experiment with PD-1-mFc [17] stood at 1.66 OD.
